Reference: patent publication US9663815B2, “Cytosolically-active peroxidases as reporters for microscopy” (Massachusetts Institute of Technology, priority 2011, dated 2017)

Assays:
[1] = test system: HEK cells; experiment: DAB staining of transfected cells (brightfield); assay type: cell-based
Protocol: Next, the activity of wt APX and mAPX was compared in mammalian cells.
(§1) To generate a monomeric APX with improved activity, the two mAPX mutations (K14D/E112K) were added to each of the activity-enhanced mutants. […] The sextuple mutant (K14D, E112K, W41F, D133A, T135F, K136F=mAPX−FFAF), was compared to mAPX+W41F within cells. HEK cells were transfected with constructs targeted to the mitochondrial matrix (Table 3), while COS-7 cells were transfected with constructs fused to the C-terminus of connexin 43 (Table 3). After fixation, the cells were treated with DAB and H2O2 to generate DAB polymer. […] After fixation, cells were stained with anti-Flag (for matrix) or anti-myc (for connexin) antibody to visualize peroxidase expression levels. […] Therefore mAPX+W41F (K14D/E112K/W41F) was selected, denoted as “APEX” (for Enhanced APX), as the optimized reporter for subsequent experiments.
A solution of 4% formaldehyde (freshly depolymerized from paraformaldehyde) with 2% glutaraldehyde in 10 mM phosphate buffered saline (PBS) was added to cells 24 hours after transfection. Cells were treated for 3 min at room temperature, then 30 min on ice. Cells were then washed 5×2 min using ice cold 10 mM PBS. Cells were blocked with 20 mM glycine for 5 min on ice. Cells were then washed 5×2 min with ice-cold 10 mM PBS. Cells were then treated with an ice-cold solution of DAB (0.5 mg/mL) and H2O2 (0.03%) in 10 mM PBS for 20 min. Cells were then washed 5×2 min with ice-cold 10 mM PBS. Cells were treated with 2% OsO4 in ice-cold 10 mM PBS for 30 min, then washed 5×2 min with ice-cold distilled deionized water. Cells were then placed under ice-cold 2% aqueous uranyl acetate for 24 hours.
(§2) Any cell displaying detectable GFP fluorescence was considered transfected. Contact sites between neighboring transfected cells were identified using DIC imaging. Gap junctions were identified as lines of GFP fluorescence unambiguously overlaying with the plasma membrane of two transfected cells based on DIC. DAB stain intensity for APX-NES variants was analyzed using SlideBook. Transfected cells were identified by nuclear YFP fluorescence. In each transfected cell, a representative DAB-stained region was encircled, and its average brightfield intensity was calculated. Background intensity, determined for each field of view by encircling a representative region in the cytosol of an untransfected cell, was subtracted out. The bar graph in FIG. 2c represents mean data from >60 transfected cells.

[2] = Guaiacol activity assay (Michaelis-Menten kinetics); assay type: biochemical; conditions: guaiacol as substrate, purified enzyme
Protocol: Data points represent the mean±standard deviation of 2-3 independent measurements. Initial rates are shown as a function of guaiacol concentration. H2O2 concentration was 90 μM, and enzyme concentration was 20 nM in all trials. Oxidation to tetraguaiacol was monitored by absorbance at 470 nm (ε470=22×10^3 M^−1 cm^−1)^2.
High activity toward guaiacol generally correlated well with robust polymerization of DAB in vitro. Guaiacol assays were performed on a Nanodrop 2000c UV-vis spectrophotometer (Thermo Scientific) using its cuvette reader. HRP (Sigma) was prepared as a 10 μM stock in PBS, flash frozen and stored at −80° C., and thawed immediately before use. Guaiacol peroxidase activity was measured according to the protocol of Lad et. al.^35 Oxidation to tetraguaiacol was monitored by absorbance at 470 nm (ε470=22×10^3 M^−1 cm^−1). Kcat and KM were calculated by nonlinear regression fitting to the Michaelis-Menten equation using OriginPro (OriginLab Corporation). All values are reported as the mean±standard deviation for 2-3 independent Michaelis-Menten fittings, with each fitting using at least 5 values of substrate concentration ranging between 0.25 and 30 mM.
In order to improve the performance of mAPX in mammalian cells, monomeric APX was engineered with improved activity toward DAB in the hope that faster kinetics could compensate for diminished heme binding. The substrate binding site of APX was compared to that of HRP, which has faster kinetics and broader aromatic substrate tolerance (Henriksen, et. al., Journal of Biological Chemistry 274, 35005-35011 (1999)). In order to make APX more HRP-like, seven mutants of APX were designed that incorporated mostly aromatic residues into the active site (FIG. 5a). A colorimetric assay was employed using guaiacol, a prototypical aromatic peroxidase substrate, to determine Michaelis-Menten parameters (Kumar, et. al., Journal of Cell Science 108, 3725-3734 (1995); Henriksen, et. al., Journal of Biological Chemistry 274, 35005-35011 (1999)) (FIG. 5b and FIG. 10). […]

[3] = test system: connexin43 (Cx43); experiment: Connexin43 fusion localization to gap junctions; assay type: cell-based, rat; conditions: for localization of connexin43 fusion / gap junction formation: fused to connexin43
Protocol: Both mAPX and wt APX were fused to connexin43 (Cx43), a protein that is sensitive to oligomeric tags (FIG. 4d) (McKinney, et. al., Nat Meth 6, 131-133 (2009); Lauf, et. al., FEBS letters 498, 11-15 (2001)).
as §1, §2

[4] = Gel filtration chromatography, oligomerization state; assay type: physicochemical; conditions: PBS pH 7.4
Protocol: APX, fluorescent protein, or miniSOG preparations were diluted to the desired concentrations using chilled (4° C.) PBS and then allowed to incubate at room temperature for 30 min to overnight. Samples (100 μL) were run on a Waters HPLC system over a Superdex 75 10/300 column (GE Healthcare) that had been pre-equilibrated in PBS, pH 7.4. Samples were run isocratically in PBS at a flow rate of 0.5 mL/min. Elution of APX was monitored at 280 nm and 405 nm (heme absorbance). Empower software (Waters) was used for analysis of elution profiles. Apparent MWs were determined against low molecular weight standards (GE). […] The apparent MW of the monomer for wt APX was assumed to be equal to the apparent MW of mAPX at 0.25 μM.
To investigate whether this localization is an artifact of APEX dimerization at high concentrations, the experiment was repeated using a tandem dimer of APX^W41F (two APX^W41F proteins linked with a short amino acid chain, denoted tdAPX) as well as miniSOG in place of APEX. Additionally, gel filtration chromatography (GFC) was used to assess the relative abundance of oligomers that formed at increasing tdAPX concentrations in vitro (5 μM, 20 μM, and 47 μM). Three different linker lengths (18, 23, and 28 amino acids) were tested. His6-tagged proteins were expressed and purified from E. coli. All three variants gave a major peak with an apparent molecular weight (MW) of ˜56 kDa, as expected for tdAPX. The apparent MW of the major peak remained constant as a function of concentration for all three constructs. […] Therefore, the 28 amino acid linker variant was selected as the optimized tandem dimer to be used in EM experiments.

[5] = test system: COS-7 cells; experiment: EM imaging after DAB/OsO4 staining; assay type: cell-based
Protocol: Transfected cells cultured on poly-d-lysine coated glass bottom dishes (P35GC-0-14-C, MatTek Corp.) were fixed using room temperature 2% glutaraldehyde (Electron Microscopy Sciences) in 100 mM sodium cacodylate buffer with 2 mM CaCl2, pH 7.4, then quickly moved to ice. Cells were kept between 0 and 4° C. for all subsequent steps until resin infiltration. After 30-60 min, cells were rinsed 5×2 min in chilled buffer, then treated for 5 min in buffer containing 20 mM glycine to quench unreacted glutaraldehyde, followed by 5×2 min rinses in chilled buffer. A freshly-diluted solution of 0.5 mg/mL 3,3′-diaminobenzidine (DAB) tetrahydrochloride or the DAB free base (Sigma) dissolved in HCl were combined with 0.03% (v/v) H2O2 in chilled buffer, and the solution was added to cells for 1 to 15 min, depending on the sample. The reaction product generation could be monitored by transmitted LM. To halt the reaction, the DAB solution was removed, and cells were rinsed 5×2 min with chilled buffer. For correlated LM-EM imaging of connexin43-GFP-APEX, the procedure was the same except cells were immersed in 2% glutaraldehyde for ˜16 h, and regions of interest were identified by GFP fluorescence prior to treatment with DAB. After the DAB reaction was halted, cells were post-fixed for 30 min using 2% osmium tetroxide (Electron Microscopy Sciences) in chilled buffer. Cells were rinsed 5×2 min in chilled distilled water, then placed in chilled 2% aqueous uranyl acetate (Electron Microscopy Sciences) overnight. […]
DAB-stained areas of embedded cultured cells were identified by transmitted light and the areas of interest were sawed out using a jeweler's saw and mounted on dummy acrylic blocks with cyanoacrylic adhesive. […] Electron micrographs recorded using a JEOL 1200 TEM operating at 80 keV.

[6] = test system: MCU (mitochondrial calcium uniporter); experiment: Functional assay for Ca2+ uptake of MCU fusions; assay type: cell-based, human; conditions: fusion to MCU, versus Flag-tagged MCU; data not shown

B1: mAPX-NES: Flag-mAPX with C-terminal nuclear export signal, cytosolic expression (protein, UniProt P48534 2-250, looked up, variant K14D E112K)
L-ascorbate peroxidase, …: GKSYPTVSPDYQDAIEKAKRKLRGFIAEKKCAPLILRLAWHSAGTFDSKTKTGGPFGTIKHQAELAHGANNGLDIAVRLLEPIKEQFPIVSYADFYQLAGVVAVEITGGPKVPFHPGREDKPEPPPEGRLPDATKGSDHLRDVFGKAMGLSDQDIVALSGGHTIGAAHKERSGFEGPWTSNPLIFDNSYFTELLTGEKDGLLQLPSDKALLTDSVFRPLVEKYAADEDVFFADYAEAHLKLSELGFAEA
modifications: N-terminal Flag tag; C-terminal nuclear export signal
notes: Flag-mAPX with C-terminal nuclear export signal, cytosolic expression
For B1, which “activity after culturing the cells with heme” value ([1]; cytosol (NES), heme added after transfection) is on record?
Its value is “significantly boosted”.

B2: W41F/G69F/D133A/T135F/K136F: quintuple, most HRP-like active-site mutant of pea APX (protein, UniProt P48534 2-250, looked up, variant W41F G69F D133A T135F K136F)
L-ascorbate peroxidase, …: GKSYPTVSPDYQKAIEKAKRKLRGFIAEKKCAPLILRLAFHSAGTFDSKTKTGGPFGTIKHQAELAHFANNGLDIAVRLLEPIKEQFPIVSYADFYQLAGVVAVEITGGPEVPFHPGREDKPEPPPEGRLPAAFFGSDHLRDVFGKAMGLSDQDIVALSGGHTIGAAHKERSGFEGPWTSNPLIFDNSYFTELLTGEKDGLLQLPSDKALLTDSVFRPLVEKYAADEDVFFADYAEAHLKLSELGFAEA
With B2 as the molecule, how does the “activity in vitro (guaiacol)” value [2] read?
The value was “most active”.

B3: mAPX−FFAF: sextuple mutant K14D, E112K, W41F, D133A, T135F, K136F of pea APX (protein, UniProt P48534 2-250, looked up, variant K14D E112K W41F D133A T135F K136F)
L-ascorbate peroxidase, …: GKSYPTVSPDYQDAIEKAKRKLRGFIAEKKCAPLILRLAFHSAGTFDSKTKTGGPFGTIKHQAELAHGANNGLDIAVRLLEPIKEQFPIVSYADFYQLAGVVAVEITGGPKVPFHPGREDKPEPPPEGRLPAAFFGSDHLRDVFGKAMGLSDQDIVALSGGHTIGAAHKERSGFEGPWTSNPLIFDNSYFTELLTGEKDGLLQLPSDKALLTDSVFRPLVEKYAADEDVFFADYAEAHLKLSELGFAEA
Which “localization of connexin43 fusion / gap junction formation” value [3] does the source give for B3 here?
Its value is “formed very few gap junctions”.

B4: APEX: triple mutant K14D/W41F/E112K of pea APX, Enhanced APX reporter (protein, listed as Pisum sativum)
chain: MGKSYPTVSPDYQDAIEKAKRKLRGFIAEKKCAPLILRLAFHSAGTFDSKTKTGGPFGTIKHQAELAHGANNGLDIAVRLLEPIKEQFPIVSYADFYQLAGVVAVEITGGPKVPFHPGREDKPEPPPEGRLPDATKGSDHLRDVFGKAMGLSDQDIVALSGGHTIGAAHKERSGFEGPWTSNPLIFDNSYFTELLTGEKDGLLQLPSDKALLTDSVFRPLVEKYAADEDVFFADYAEAHLKLSELGFAEA
With B4 as the molecule, how does the oligomerization state [4] read?
Its oligomerization state is “equally monomeric to mAPX”.

And the “EM contrast / DAB staining, ER lumen” value ([5]; KDEL-targeted, COS-7)?
Its value is “dense DAB staining throughout the ER tubular network”.

And the “EM contrast / DAB staining, mitochondrial matrix” value ([5]; Mito matrix-APEX, COS-7)?
Its value is “strong contrast and well-defined cristae structures”.

What about the “activity in the intermembrane space (IMS)” value ([5]; separate controls) of the same molecule?
The value was “highly active”.

What about the “DAB staining activity in mitochondrial matrix” value ([1]; mitochondrial matrix-targeted constructs, HEK cells) of the same molecule?
The value was “much stronger DAB stain”.

What about the “DAB stain of connexin fusion” value ([3]; COS-7 cells, fused to C-terminus of connexin 43) of the same molecule?
Its value is “strong DAB stain”.

And the “localization of connexin43 fusion / gap junction formation” value [3]?
The value was “behaves well as a fusion to Cx43”.

And the “localization of connexin43 fusion / gap junction formation” value ([3]; listed as mAPX+W41F)?
Its value is “incorporated well into gap junctions”.

What about the “Ca2+ uptake of MCU fusion” value [6] of the same molecule?
The value was “performed comparably to MCU appended to a small Flag epitope tag”.
